Experimental data reported in paper PMC11587651, “Increased cytoplasmic expression of PETase enzymes in E. coli” (Microbial Cell Factories, 2024).
Residue numbers refer to the chain shown, from its start. Numbers in names are those of the source.

Substrate: CC(=O)Oc1ccc([N+](=O)[O-])cc1
Experiment: purified protein
Assay type: biochemical, Pseudideonella sakaiensis
Details: 100 mM potassium phosphate pH 7, 25 °C, 1-20 mM 4-NPA, acetonitrile from substrate stock

B1: IsPETase (Pseudideonella sakaiensis; D186H/K252M/K95N/M154G/N212K/N233C/N241C/P181V/Q119K/Q182M/R224L/R280A/R90T/S121E/S207R/S213E/S214Y/S282C/S58A/S61V/T270Q) (protein)
chain: AQTNPYARGPNPTAASLEASAGPFTVRSFTVARPVGYGAGTVYYPTNAGGTVGAIAIVPGYTATQSSINWWGPRLASHGFVVITIDTNSTLDKPESRSSQQMAALRQVASLNGTSSSPIYGKVDTARGGVMGWSMGGGGSLISAANNPSLKAAAVMAPWHSSTNFSSVTVPTLIFACENDRIAPVKEYALPIYDSMSLNAKQFLEICGGSHSCACSGNSNQALIGMKGVAWMKRFMDNDTRYSQFACENPNSTAVCDFRTANCS
notes: expressed in E. coli SHuffle T7 Express; IMAC purified; monomeric by SEC
Q: What does the source list for B1?
A: Km (Hot-PETase): 9.61 ± 0.91 mM; kcat (Hot-PETase): 33.0 ± 1.5 s⁻¹

B2: IsPETase (Pseudideonella sakaiensis) (protein)
chain: AQTNPYARGPNPTAASLEASAGPFTVRSFTVSRPSGYGAGTVYYPTNAGGTVGAIAIVPGYTARQSSIKWWGPRLASHGFVVITIDTNSTLDQPSSRSSQQMAALRQVASLNGTSSSPIYGKVDTARMGVMGWSMGGGGSLISAANNPSLKAAAPQAPWDSSTNFSSVTVPTLIFACENDSIAPVNSSALPIYDSMSRNAKQFLEINGGSHSCANSGNSNQALIGKKGVAWMKRFMDNDTRYSTFACENPNSTRVSDFRTANCS
notes: as for B1
Q: How did the Km turn out when B2 was run?
A: Its Km is 8.16 ± 0.66 mM.

Q: And the kcat?
A: Its kcat is 30.3 ± 1.1 s⁻¹.

B3: IsPETase (Pseudideonella sakaiensis; D186H/N233K/R224Q/R280A/S121E) (protein)
chain: B2 chain with S95E, D160H, R198Q, N207K, R254A
notes: as for B1
Q: For B3, which Km (FAST-PETase) is on record?
A: The Km was 11.33 ± 1.11 mM.

Q: What about the kcat (FAST-PETase) of the same protein?
A: The kcat was 45.7 ± 2.3 s⁻¹.
